Assay [1] addresses recombinant neuraminidase (rNA) of B/Malaysia/2506/04 (influenza B virus B/Malaysia/2506/04).
The target is the same in assay [2]. The experiment in a line: ELISA, rNA B/Malaysia/2506/04 coated at 2 ug/mL.
Assay [3] has as its target neuraminidase of B/Lee/40 (purified whole virus) (influenza B virus B/Lee/40, UniProt P03474 1-466). The experiment in a line: ELISA on purified whole virus. A general note: ELISA stands for enzyme-linked immunosorbent assay.
Assay [4] concerns the target neuraminidase of wild type B/Malaysia/2506/04 virus (on virus and on infected MDCK cells) (influenza B virus B/Malaysia/2506/04). As to the kind of experiment: cell-based or functional assay.
Assay [5] deals with recombinant neuraminidase (rNA) of B/Florida/04/06 (influenza B virus B/Florida/04/06). As to the kind of experiment: ELISA, biotinylated 3G1 on rNA B/Florida/04/2006, no competitor.
Assay [6] shares this target.
The target is the same in assay [7]. The experiment in a line: ELISA, biotinylated 4B2 on rNA B/Florida/04/2006, no competitor.
Assay [8] has the same target. The experiment in a line: ELISA, rNA B/Florida/4/2006 coated at 2 ug/mL.
The target is the same in assay [9]. The source holds these as a separate data set.
Assay [10] shares this target. As to the kind of experiment: ELISA, biotinylated 1F2 on rNA B/Florida/04/2006, no competitor.

Like-named read-outs stand apart in the source and are kept apart here.

Broadly, the Kd is the equilibrium constant for the complex coming apart. Usually EC50 (read off the curve) stands for the concentration needed to bring the measured effect to its halfway point.

Sequence of neuraminidase of B/Lee/40 (purified whole virus) (P03474 whole entry): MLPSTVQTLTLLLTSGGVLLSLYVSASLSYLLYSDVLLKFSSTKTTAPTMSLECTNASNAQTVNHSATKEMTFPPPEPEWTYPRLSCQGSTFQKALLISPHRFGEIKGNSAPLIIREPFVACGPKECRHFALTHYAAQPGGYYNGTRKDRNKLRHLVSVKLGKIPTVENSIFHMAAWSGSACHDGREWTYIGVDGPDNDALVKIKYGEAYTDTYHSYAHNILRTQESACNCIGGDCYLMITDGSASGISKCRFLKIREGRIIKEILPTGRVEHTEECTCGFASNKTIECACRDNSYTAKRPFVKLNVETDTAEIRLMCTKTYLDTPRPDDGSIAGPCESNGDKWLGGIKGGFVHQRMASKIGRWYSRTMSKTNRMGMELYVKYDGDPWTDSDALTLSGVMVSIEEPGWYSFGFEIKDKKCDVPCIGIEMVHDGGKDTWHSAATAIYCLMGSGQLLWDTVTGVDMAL

B1: recombinant 4F11 IgG2b (antibody, V domains shown)
VH: DVKLVESGGDLVKPGGSLKLSCAASGFTFSAYSMSWVRQTPERRLEWVATINTGGSFTYYPDSVKGRFTISRDNAKNTLYLQMSSLKSEDTAMYFCTRVSDYGNSAYFPYWGQGTLVIVSA
VL: QVVLTQSPALISASPGEKVTMTCSASSNVNYMSWYQQRPRSSPKPWIYLTSKLASGVPPRFSGSGSGTSYSLTISSMEAEDVATYYCQQWSSDPQTFGGGTKVEIK
B1: the Kd in [1] was 0.00298 nM. Besides, the EC50 (read off the curve) in assay [2] turned out to be 0.07 µg/mL.

B2: 4F11 antibody (murine IgG2b, hybridoma-produced) (antibody, V domains shown)
VH: B1 VH
VL: B1 VL
notes: also called mAb 4F11; 4F11 Hybridoma
For the molecule B2, in assay [3], the binding result is reported as “binds”. The EC50 (read off the curve) in assay [2] was found to be 0.06 µg/mL.

B3: recombinant 4F11 monomeric IgA (antibody, V domains shown)
VH: B1 VH
VL: B1 VL
On to B3, for which the Kd in [1] was 0.00472 nM.

B4: recombinant 4F11 IgG1 (antibody, V domains shown)
VH: B1 VH
VL: B1 VL
On to B4, for which, in assay [1], the Kd was determined as 0.00891 nM.

B5: recombinant 4F11 IgG2a (antibody, V domains shown)
VH: B1 VH
VL: B1 VL
Take B5: the Kd in assay [1] was found to be 0.00336 nM.

B6: 3G1 antibody (murine IgG2a, hybridoma-produced) (antibody, V domains shown)
VH: QVQLQQSGAELMKPGASVKISCKATGYKFTSYWIGWVKQRPGHGLEWCGEIFPGSGSINYNEKFKGKATFTADTSSNTAYLQLTSLTSEDSAVYYCARGEDYYGSSYGAMDYWGQGTSLTVSS
VL: DVQITQSPSYLAASPGETITINCRASKSISKYVAWYQEKPGRTNKVLIYSGSILSFGNPSRFSGSGSGTDFTLTISSLEPEDFAMYYCQQHNEYPWTFGGGTKLEIK
notes: also called mAb 3G1
In the case of B6, the NI activity, NA-Star assay (percent inhibition) in [4] stood at 100%. The binding result in [3] was “binds”. Moreover, the EC50 (read off the curve) in assay [5] was found to be 0.07 µg/mL.

B7: 1F4 antibody (murine IgG2a, hybridoma-produced) (antibody, V domains shown)
VH: QVHLQQSGSELRSPGSSVKLSCKDFDSEVFPIVYMRWIRQKPGHGFEWIGDILPSFGRTIYGEKFEDKATLDADTVSNTAYLELNSLTSEDSAIYYCARGDHGNWLAYWGQGTLVTVSA
VL: DIVMTQSHKFMSTSVGDRVTITCKASQDVSTAVAWYQQKPGQSPKLLIYWASTRHTGVPNRFTGIISGTDYTLTISSVQAEDLALYYCQQHYSAPWTFGGGTKLEIK
notes: also called mAb 1F4; IF4
On to B7, for which the EC50 (read off the curve) in assay [6] was 0.04 µg/mL. In assay [3], the binding result is recorded as “binds”.

B8: 4B2 antibody (murine IgG2a, hybridoma-produced) (antibody, V domains shown)
VH: QIQLVQSGPELKKPGETVKISCKASGFTFTDYPMHWVKQAPGKSLKWMGWINTETEEPTYSDDFKGRFALSLETSASTTYLQINNLKNEDTATYFCARSGYYYGSTYAWFGYWGQGTLVTVSA
VL: DVVMTQIPLSLPVSLGDQASISCRSSQSLIHTNGDTFLHWYLQKPGQSPKLLIYKVSNRFSGVPDRFTGGGSGTDFTLKISRVEAEDLGIYFCSQSALFPYTFGGGTNLEIK
notes: also called mAb 4B2
As for B8, the binding result in assay [3] was “binds”. The EC50 (read off the curve) in assay [7] is 0.1 µg/mL.

B9: recombinant 1F2 IgG2a (antibody, V domains shown)
VH: QVHLQQSGPEVARPGASVKLSCKASGYTFTDYYLNWVKQRPRQGLEWIGQIHPGSTNTYYNEKFKGKATLTADKSSSTAYMQLSSLTSEDSAVYFCARSLGDGYYVYAMDYWGQGTAVTVSS
VL: DIVMTQSQKFMSTSVGDRVSVTCKASQNVVTNVVWYQQKPGQSPKPLIYSASYRYSGVPDRFTGSGSGTDFTLTISNVQSEDLAEYCCQQYHSYPFTFGSGTKLEVK
Regarding B9, the Kd in assay [1] turned out to be 0.68 nM. Also, in [8], the EC50 (read off the curve) is 0.03 µg/mL.

B10: recombinant 1F2 IgG2b (antibody, V domains shown)
VH: B9 VH
VL: B9 VL
For B10, the Kd in assay [1] came out at 1.16 nM. Moreover, the EC50 (read off the curve) in assay [8] was 0.03 µg/mL.

B11: recombinant 1F2 IgG1 (antibody, V domains shown)
VH: B9 VH
VL: B9 VL
As to B11, the Kd in [1] came to 1.05 nM. The EC50 (read off the curve) in [8] turned out to be 0.05 µg/mL.

B12: recombinant 1F2 monomeric IgA (antibody, V domains shown)
VH: B9 VH
VL: B9 VL
For B12, the Kd in [1] was determined as 0.958 nM.

B13: 1F2 antibody (murine IgG2a, hybridoma-produced) (antibody, V domains shown)
VH: B9 VH
VL: B9 VL
notes: also called mAb 1F2; IF2
As for B13, the EC50 (read off the curve) stood at 0.2 µg/mL in assay [9], 0.03 µg/mL in [8] and 0.02 µg/mL in [10]. For the same molecule, in [3], the binding result is “binds”.

The record behind these values is patent publication US20220153873A1 (ICAHN SCHOOL OF MEDICINE AT MOUNT SINAI, published 2022).
